Results as given in patent publication US20210355194A1 (TWIST BIOSCIENCE, published 2021).
Read-outs that look alike come from different tables or passages of the source.

Key:
[1] = target: T1, SARS-COV2-S1 RBD (mouse IgG2Fc tag) (SARS-CoV-2, UniProt P0DTC2 319-537)
[2] = target: T2, Acro SARS-CoV-2 (COVID-19) S1 protein (SARS-CoV-2, UniProt P0DTC2 16-685); experiment: SPR
T2 construct: also called SARS-CoV-2 S1

[3] = target: SARS-CoV-2 spike on live SARS-CoV-2 virus (SARS-CoV-2, UniProt P0DTC2 14-1273); experiment: cell-based or functional assay
[4] = target: T3, SARS-CoV-2 S1 protein (SARS-CoV-2, UniProt P0DTC2 16-685); experiment: phage ELISA screen on S1, mean
T3 construct: also called SARS-CoV-2 Spike Glycoprotein S1; S1 (subunit 1)

[5] = target: T3, SARS-CoV-2 S1 protein; experiment: phage ELISA screen on S1, mean; remark: listed apart in the source
[6] = target: SARS-CoV-2 S1 (subunit 1) protein (SARS-CoV-2, UniProt P0DTC2 16-685); experiment: phage ELISA
[7] = target: T4, COVID S1 RBD Fc fusion (Antigen 1) (SARS-CoV-2, UniProt P0DTC2 319-541); experiment: phage ELISA
T4 construct: domain: S1 RBD

[8] = target: T5, S1-Fc (SARS-CoV-2, UniProt P0DTC2 14-685); experiment: phage ELISA
T5 construct: also called S1 Fc fusion protein

[9] = target: T6, COVID S1 RBM Fc fusion (Antigen 2) (SARS-CoV-2, UniProt P0DTC2 437-508); experiment: phage ELISA
T6 construct: domain: S1 RBM

[10] = target: T1, SARS-COV2-S1 RBD (mouse IgG2Fc tag); experiment: FACS, blocks S1 RBD-mFc binding to ACE2 on Vero E6
[11] = target: T1, SARS-COV2-S1 RBD (mouse IgG2Fc tag); experiment: column not explained; likely FACS, S1 RBD on Vero E6
[12] = target: T1, SARS-COV2-S1 RBD (mouse IgG2Fc tag); experiment: FACS, blocks S1 RBD-mFc binding to ACE2 on Vero E6; remark: listed apart in the source

Binder | Kd [2] | screening ELISA (Avg), fold over background [6] | specificity ELISA, fold over background [7] | specificity ELISA, percent binding relative to Acro S1 [7] | specificity ELISA, fold over background [8] | specificity ELISA, percent binding relative to Acro S1 [8] | specificity ELISA, fold over background [9] | specificity ELISA, percent binding relative to Acro S1 [9] | IC50 [10] | also measured
variant 5-67 (Fc fusion) VHH: EVQLVESGGGLVQPGGSLRLSCAASGFNVNDYAMGWFRQAPGKEREFVAGITSSVGVTNYADSVKGRFTISADNSKNTAYLQMNSLKPEDTAVYYCAADIFFVNWGRGTLVTVSS | 22.1 nM |  |  |  |  |  |  |  |  | IC50 [1]: 0.76 nM; EC80 [3]: 1.57 µg/mL
variant 5-47 (Fc fusion) VHH: EVQLVESGGGLVQPGGSLRLSCAASGFTFGSYDMGWFRQAPGKEREFVTAINWSGARTAYADSVKGRFTISADNSKNTAYLQMNSLKPEDTAVYYCAARSVYSYEYNWGQGTLVTVSS | 27.7 nM |  |  |  |  |  |  |  |  | IC50 [1]: 0.8 nM; EC80 [3]: 2.46 µg/mL
variant 5-56 (Fc fusion) VHH: EVQLVESGGGLVQPGGSLRLSCAASGRTFSSNMGWFRQAPGKEREFVARIFGGDRTLYADSVKGRFTISADNSKNTAYLQMNSLKPEDTAVYYCADINGDWGQGTLVTVSS | 54.3 nM |  |  |  |  |  |  |  |  | IC50 [1]: 0.68 nM; EC80 [3]: 105 µg/mL
2-18 (antibody, V domains shown, also called variant 2-18) VH: EVQLLESGGGLVQPGGSLRLSCAASGFTFSSYAMYWVRQAPGKGLEWVSAISGSAGSTYYADSVKGRFTISRDNSKNTLYLQMNSLRAEDTAVYYCARDTNDFWSGYSIFDPWGQGTLVTVSS VL: DIQMTQSPSSLSASVGDRVTITCTGTSSDIGSYNLVSWYQQKPGKAPKLLIYEGTKRPSGVPSRFSGSGSGTDFTLTISSLQPEDFATYYCCSYAGSRTYVFGQGTKVEIK |  |  |  |  |  |  |  |  |  | ELISA(Avg) [4]: 43 fold over background; ELISA(Avg) [5]: 43 fold over background
variant 2-4 (antibody, V domains shown) VH: EVQLLESGGGLVQPGGSLRLSCAASGFTFSDFAMAWVRQAPGKGLEWVSAISGSGDITYYADSVKGRFTISRDNSKNTLYLQMNSLRAEDTAVYYCAREADGLHSPWHFDLWGQGTLVTVSS VL: DIQMTQSPSSLSASVGDRVTITCRASQSIDTYLNWYQQKPGKAPKLLIYAASALASGVPSRFSGSGSGTDFTLTISSLQPEDFATYYCQQSYSAPPYTFGQGTKVEIK |  | 15.5 fold over background | 38.8 fold over background | 103% | 7.2 fold over background | 19% | 1.2 fold over background | 3.1% |  | 
variant 2-5 (antibody, V domains shown) VH: EVQLLESGGGLVQPGGSLRLSCAASGFTFSDFAMAWVRQAPGKGLEWVSAISGSGDITYYADSVKGRFTISRDNSKNTLYLQMNSLRAEDTAVYYCAREADGLHSPWHFDLWGQGTLVTVSS VL: DIQMTQSPSSLSASVGDRVTITCRASQSIHTYLNWYQQKPGKAPKLLIYAASALASGVPSRFSGSGSGTDFTLTISSLQPEDFATYYCQQSYSAPPYTFGQGTKVEIK [variant 2-5, listing 1 of 2 here] |  | 30.8 fold over background | 35.9 fold over background | 93.7% | 24.3 fold over background | 63.3% | 1.1 fold over background | 3% |  | 
variant 2-2 (antibody, V domains shown) VH: EVQLLESGGGLVQPGGSLRLSCAASGFTFSRHAMNWVRQAPGKGLEWVSGISGSGDETYYADSVKGRFTISRDNSKNTLYLQMNSLRAEDTAVYYCARDLPASYYDSSGYYWHNGMDVWGQGTLVTVSS VL: DIQMTQSPSSLSASVGDRVTITCRASQTINTYLNWYQQKPGKAPKLLIYSASTLQSGVPSRFSGSGSGTDFTLTISSLQPEDFATYYCQQSYSTFTFGQGTKVEIK [variant 2-2, listing 1 of 2 here] |  | 23.4 fold over background | 39.6 fold over background | 100% | 4.7 fold over background | 12% | 1.1 fold over background | 2.8% |  | 
variant 5-20 (Fc fusion) VHH: EVQLVESGGGLVQPGGSLRLSCAASGRTIVPYTMGWFRQAPGKERELVAAISPSAFTEYADSVKGRFTISADNSKNTAYLQMNSLKPEDTAVYYCAARRWGYDWGQGTLVTVSS | 14.3 nM |  |  |  |  |  |  |  | 1.23 nM | MFI Fold Decrease [11]: 12.4 fold
variant 5-1 (Fc fusion) VHH: EVQLVESGGGLVQPGGSLRLSCAASGGTFSSIGMGWFRQAPGKEREFVAAISWDGGATAYADSVKGRFTISADNSKNTAYLQMNSLKPEDTAVYYCAKEDVGKPFDWGQGTLVTVSS | 15.1 nM |  |  |  |  |  |  |  | 0.75 nM | MFI Fold Decrease [11]: 10 fold
variant 5-60 (Fc fusion) VHH: EVQLVESGGGLVQPGGSLRLSCAASGRSFSSHRMGWFRQAPGKEREFVAAIMWSGSHRNYADSVKGRFTISADNSKNTAYLQMNSLKPEDTAVYYCAAIAYEEGVYRWDWGQGTLVTVSS | 29.4 nM |  |  |  |  |  |  |  |  | IC50 [1]: 2.15 nM
variant 5-37 (Fc fusion) VHH: EVQLVESGGGLVQPGGSLRLSCAASGSTFSINAMGWFRQAPGKEREFVGGISRSGATTNYADSVKGRFTISADNSKNTAYLQMNSLKPEDTAVYYCAADGVPEYSDYASGPVWGQGTLVTVSS | 30.2 nM |  |  |  |  |  |  |  | 1.01 nM | MFI Fold Decrease [11]: 8.19 fold
variant 5-34 (Fc fusion) VHH: EVQLVESGGGLVQPGGSLRLSCAASGRTFSRYIMGWFRQAPGKEREFVAAISWSGGDNTYYADSVKGRFTISADNSKNTAYLQMNSLKPEDTAVYYCAAYRIVVGGTSPGDWRWGQGTLVTVSS |  |  |  |  |  |  |  |  | 1.21 nM | MFI Fold Decrease [11]: 5.69 fold
variant 2-2 (antibody, V domains shown) VH: EVQLLESGGGLVQPGGSLRLSCAASGFTFSRHAMNWVRQAPGKGLEWVSGISGSGDETYYADSVKGRFTISRDNSKNTLYLQMNSLRAEDTAVYYCARDLPASYYDSSGYYWHNGMDVWGQGTLVTVSS VL: DIQMTQSPSSLSASVGDRVTITCRASQTINTYLNWYQQKPGKAPKLLIYSASTLQSGVPSRFSGSGSGTDFTLTISSLQPEDFATYYCQQSYSTFTFGQGTKVEIK [variant 2-2, listing 2 of 2 here] |  |  |  |  |  |  |  |  | 0.56 nM | IC50 [12]: 0.56 nM
variant 2-5 (antibody, V domains shown) VH: EVQLLESGGGLVQPGGSLRLSCAASGFTFSDFAMAWVRQAPGKGLEWVSAISGSGDITYYADSVKGRFTISRDNSKNTLYLQMNSLRAEDTAVYYCAREADGLHSPWHFDLWGQGTLVTVSS VL: DIQMTQSPSSLSASVGDRVTITCRASQSIHTYLNWYQQKPGKAPKLLIYAASALASGVPSRFSGSGSGTDFTLTISSLQPEDFATYYCQQSYSAPPYTFGQGTKVEIK [variant 2-5, listing 2 of 2 here] |  |  |  |  |  |  |  |  | 2.15 nM | IC50 [12]: 2.15 nM
variant 2-12 (antibody, V domains shown) VH: EVQLLESGGGLVQPGGSLRLSCAASGFTFSDYPMNWVRQAPGKGLEWVSTISGSGGITFYADSVKGRFTISRDNSKNTLYLQMNSLRAEDTAVYYCVRHDEYSFDYWGQGTLVTVSS VL: DIQMTQSPSSLSASVGDRVTITCRASQSIDNYLNWYQQKPGKAPKLLIYGVSALQSGVPSRFSGSGSGTDFTLTISSLQPEDFATYYCQQSHSAPPYFFGQGTKVEIK |  | 18.2 fold over background | 40.3 fold over background | 101% | 14.7 fold over background | 37% | 1.1 fold over background | 2.9% |  | 
variant 2-13 (antibody, V domains shown) VH: EVQLLESGGGLVQPGGSLRLSCAASGFTFSDYPMNWVRQAPGKGLEWVSAISGSGDNTYYADSVKGRFTISRDNSKNTLYLQMNSLRAEDTAVYYCVRHDEYSFDYWGQGTLVTVSS VL: DIQMTQSPSSLSASVGDRVTITCRASQSIDTYLNWYQQKPGKAPKLLIYGASALESGVPSRFSGSGSGTDFTLTISSLQPEDFATYYCQQSHSAPPYFFGQGTKVEIK |  | 19.1 fold over background | 32.1 fold over background | 118% | 3.7 fold over background | 13.4% | 0.9 fold over background | 3.1% |  | 
variant 2-8 (antibody, V domains shown) VH: EVQLLESGGGLVQPGGSLRLSCAASGFTFSDFAMAWVRQAPGKGLEWVSAISGSGDITYYADSVKGRFTISRDNSKNTLYLQMNSLRAEDTAVYYCAREADGLHSPWHFDLWGQGTLVTVSS VL: DIQMTQSPSSLSASVGDRVTITCRASQSIDTYLNWYQQKPGKAPKLLIYAASALASGVPSRFSGSGSGTDFTLTISSLQPEDFATYYCQQSYSAPPYTFGQGTKVEIK |  | 32.4 fold over background | 36.5 fold over background | 102% | 5.4 fold over background | 15% | 1.1 fold over background | 3.1% |  | 
